Results on 1 molecule are retold here after publication PMC8225859.

For the assay, the target named is Low-density lipoprotein receptor-related protein 1 (LRP1) (mouse (endogenous in gonadal fat tissue)).

B1: Apolipoprotein A4 (APOA4) in gonadal fat tissue of WT mice injected with recombinant mouse APOA4 (natural protein)
chain: EVTSDQVANVVWDYFTQLSNNAKEAVEQFQKTDVTQQLSTLFQDKLGDASTYADGVHNKLVPFVVQLSGHLAQETERVKEEIKKELEDLRDRMMPHANKVTQTFGENMQKLQEHLKPYAVDLQDQINTQTQEMKLQLTPYIQRMQTTIKENVDNLHTSMMPLATNLKDKFNRNMEELKGHLTPRANELKATIDQNLEDLRRSLAPLTVGVQEKLNHQMEGLAFQMKKNAEELQTKVSAKIDQLQKNLAPLVEDVQSKVKGNTEGLQKSLEDLNRQLEQQVEEFRRTVEPMGEMFNKALVQQLEQFRQQLGPNSGEVESHLSFLEKSLREKVNSFMSTLEKKGSPDQPQALPLPEQAQEQAQEQAQEQVQPKPLES
Molecule B1 registered a glucose uptake in 3T3-L1 mature adipocytes treated with 0, 0.5, 1, 2 uM r-m-APOA4 for 1 h; percent increase against buffer (~22% at 0.5 uM, ~34% at 1 uM, ~44% at 2 uM) of 44%.
